Assay [1] deals with T1, CD5 antigen (Acro, CD5-H52H5) (UniProt P06127 25-371).
T1 construct: Bought protein
T1 sequence (looked up): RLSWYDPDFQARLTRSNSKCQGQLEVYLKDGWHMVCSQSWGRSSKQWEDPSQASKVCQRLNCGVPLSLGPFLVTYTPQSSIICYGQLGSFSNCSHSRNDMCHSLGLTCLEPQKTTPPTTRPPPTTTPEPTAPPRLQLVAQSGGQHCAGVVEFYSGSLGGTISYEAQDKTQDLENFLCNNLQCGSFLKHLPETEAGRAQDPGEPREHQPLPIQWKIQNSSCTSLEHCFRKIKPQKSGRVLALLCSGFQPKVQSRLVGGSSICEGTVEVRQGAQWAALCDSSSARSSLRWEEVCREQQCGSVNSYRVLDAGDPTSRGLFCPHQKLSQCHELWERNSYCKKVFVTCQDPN
The assay can be described thus: BLI (Octet), IgG loaded on the biosensor, CD5 antigen 100 to 1.563 nM, 1:1 model. Background: BLI is a label-free optical method that tracks binding on a fibre tip over time.

Assay [2] addresses T2, human CD5 expressed on cells (human, UniProt P06127 25-495).
T2 construct: whole, on cells; also called CD5 positive target cells; CCRF-CEM-Luc
T2 sequence (looked up): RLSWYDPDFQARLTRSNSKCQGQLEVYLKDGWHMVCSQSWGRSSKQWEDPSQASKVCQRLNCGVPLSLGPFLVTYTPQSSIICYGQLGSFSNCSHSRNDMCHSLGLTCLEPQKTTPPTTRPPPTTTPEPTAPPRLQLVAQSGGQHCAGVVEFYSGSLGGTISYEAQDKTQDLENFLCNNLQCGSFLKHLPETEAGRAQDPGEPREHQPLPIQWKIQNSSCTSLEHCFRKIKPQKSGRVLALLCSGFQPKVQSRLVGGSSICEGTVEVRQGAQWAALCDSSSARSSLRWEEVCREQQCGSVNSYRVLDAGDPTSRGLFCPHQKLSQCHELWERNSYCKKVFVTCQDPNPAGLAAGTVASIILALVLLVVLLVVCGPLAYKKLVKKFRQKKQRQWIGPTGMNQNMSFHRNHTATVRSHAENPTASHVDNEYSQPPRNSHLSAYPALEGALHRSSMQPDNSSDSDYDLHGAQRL
The assay can be described thus: flow cytometry on SUP-T1-Luc cells (called Kd in paragraph 233); average of three experiments. The method, then: (§1) The relationship between the percentage of fluorescence-labeled positive CD5⁺ target cells and different concentrations of CD5 tandem single-domain antibody was analyzed by fitting using Graphpad Prism software to calculate the EC50 constant. A total of three independent repetitions were performed in this experiment.
Background: Flow cytometry measures light scatter and fluorescence of single cells or particles in a stream.

The target of assay [3] is T2, human CD5 expressed on cells. Briefly: flow cytometry on CCRF-CEM-Luc cells (called Kd in paragraph 233); average of three experiments. The method, then:
as §1

Assay [4] has the same target. Briefly: flow cytometry on JVM-2-Luc-CD5 cells (called Kd in paragraph 233); average of three experiments. Here is the method: as §1
Assay [5] has the same target. The assay can be described thus: flow cytometry on MEC-1-CD5-Luc cells (called Kd in paragraph 233); average of three experiments. Here is the method:
as §1

Assay [6] has the same target. The assay can be described thus: flow cytometry on SUP-T1-Luc cells, percent positive cells fitted (called Kd in paragraph 233); 1st time. The method, then:
as §1

For assay [7] the target is unchanged. Briefly: flow cytometry on SUP-T1-Luc cells, percent positive cells fitted (called Kd in paragraph 233); 2nd time. Here is the method: as §1
Assay [8] has the same target. The assay can be described thus: flow cytometry on SUP-T1-Luc cells, percent positive cells fitted (called Kd in paragraph 233); 3rd time. The method, then:
as §1

Assay [9] shares this target. Briefly: flow cytometry on CCRF-CEM-Luc cells, percent positive cells fitted (called Kd in paragraph 233); 1st time. The method, then:
as §1

The target is the same in assay [10]. Briefly: flow cytometry on CCRF-CEM-Luc cells, percent positive cells fitted (called Kd in paragraph 233); 2nd time. The method, then: as §1
Assay [11] has the same target. The assay can be described thus: flow cytometry on CCRF-CEM-Luc cells, percent positive cells fitted (called Kd in paragraph 233); 3rd time. Here is the method:
as §1

Assay [12] has the same target. Briefly: flow cytometry on JVM-2-Luc-CD5 cells, percent positive cells fitted (called Kd in paragraph 233); 1st time. The method, then:
as §1

Assay [13] has the same target. Briefly: flow cytometry on JVM-2-Luc-CD5 cells, percent positive cells fitted (called Kd in paragraph 233); 2nd time. The method, then: as §1
For assay [14] the target is unchanged. The assay can be described thus: flow cytometry on JVM-2-Luc-CD5 cells, percent positive cells fitted (called Kd in paragraph 233); 3rd time. The method, then:
as §1

Assay [15] has the same target. The assay can be described thus: flow cytometry on MEC-1-CD5-Luc cells, percent positive cells fitted (called Kd in paragraph 233); 1st time. The method, then: as §1
The target is the same in assay [16]. The assay can be described thus: flow cytometry on MEC-1-CD5-Luc cells, percent positive cells fitted (called Kd in paragraph 233); 2nd time. Here is the method:
as §1

The target is the same in assay [17]. The assay can be described thus: flow cytometry on MEC-1-CD5-Luc cells, percent positive cells fitted (called Kd in paragraph 233); 3rd time. Here is the method: as §1
For assay [18] the target is unchanged. The assay can be described thus: cell-based or functional assay.
Assay [19] addresses T3, fluorescent dye-labeled human CD5 protein (human, UniProt P06127 25-371, limits assumed, fluorescent dye label (dye and sites not stated)).
T3 construct: also called human CD5 antigen
T3 sequence (looked up): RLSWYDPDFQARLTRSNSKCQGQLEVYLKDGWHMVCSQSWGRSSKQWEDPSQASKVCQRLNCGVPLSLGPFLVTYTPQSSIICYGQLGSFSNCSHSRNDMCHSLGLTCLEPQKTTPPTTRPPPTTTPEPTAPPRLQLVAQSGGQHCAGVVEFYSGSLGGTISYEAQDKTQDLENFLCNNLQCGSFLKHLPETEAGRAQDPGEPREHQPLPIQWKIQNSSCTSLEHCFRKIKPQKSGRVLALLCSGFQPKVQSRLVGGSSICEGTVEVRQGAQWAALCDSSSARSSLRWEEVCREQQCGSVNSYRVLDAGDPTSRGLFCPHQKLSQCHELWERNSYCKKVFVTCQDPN
Briefly: flow cytometry: CT125A cells with graded fluorescent human CD5 protein; average of three experiments. The text has this:
(§2) The relationship between the percentage of the fluorescence-labeled CAR+positive cells and the concentration of CD5 protein was fitted by Graphpad Prism software to calculate the affinity EC50 constant. This experiment was completed by Shanghai IASO Biotherapeutics Co., Ltd., and a total of three independent experiments were repeated.

In assay [20] the target is T3, fluorescent dye-labeled human CD5 …. The assay can be described thus: flow cytometry: CT125A cells with graded fluorescent human CD5 protein, percent labelled CAR+ cells fitted; 1st time.
Excerpt: as §2

Assay [21] has the same target. Briefly: flow cytometry: CT125A cells with graded fluorescent human CD5 protein, percent labelled CAR+ cells fitted; 2nd time.
Excerpt: as §2

For assay [22] the target is unchanged. Briefly: flow cytometry: CT125A cells with graded fluorescent human CD5 protein, percent labelled CAR+ cells fitted; 3rd time.
Excerpt: as §2

B1: FHVH3 (#61 IgG) (Fc fusion)
chain: QVQLVQSGAEVKKPGSSVKVSCKASGGTFSNYAISWVRQAPGQGLEWMGWISAYNGDTKYAQRLQGRVTMTTDTSTSTAYMELRNLRSDDTAVYYCARYESMSGQDIWGQGTLVTVSS
notes: also called #61 clone; anti-CD5 IgG; not shown: human IgG4 Fc
For the molecule B1, in assay [1], the affinity, expressed as Kd, was 3.96 nM; the koff (as a rule, the first-order rate constant of dissociation) was found to be 0.000288 s⁻¹; the kon (commonly the rate constant with which the complex forms) was determined as 72800 M⁻¹ s⁻¹.

B2: FHVH3VH1 (#61-42 IgG) (Fc fusion)
chain: QVQLVQSGAEVKKPGSSVKVSCKASGGTFSNYAISWVRQAPGQGLEWMGWISAYNGDTKYAQRLQGRVTMTTDTSTSTAYMELRNLRSDDTAVYYCARYESMSGQDIWGQGTLVTVSSGGGGSGGGGSGGGGSEVQLLESGGGLVQPGGSLRLSCAASGFTFSHSAMGWVRQAPGKGLEWVSSIYARGGYTYYADSVKGRFTISRDNSKNTLYLQMNSLRAEDTAVYYCARGYHLEYMVSQDVWGQGTLVTVSS
notes: also called anti-CD5 IgG; not shown: human IgG4 Fc
For the molecule B2, in assay [1], the Kd (usually the concentration at which binding is half-saturated) is 1.67 nM, the off-rate constant (koff) was 0.000189 s⁻¹ and the kon came to 113000 M⁻¹ s⁻¹.

B3: CT125A tandem single-domain antibody rabbit FC fusion protein RD125 61-42 rFc (Fc fusion)
chain: QVQLVQSGAEVKKPGSSVKVSCKASGGTFSNYAISWVRQAPGQGLEWMGWISAYNGDTKYAQRLQGRVTMTTDTSTSTAYMELRNLRSDDTAVYYCARYESMSGQDIWGQGTLVTVSSGGGGSGGGGSGGGGSEVQLLESGGGLVQPGGSLRLSCAASGFTFSHSAMGWVRQAPGKGLEWVSSIYARGGYTYYADSVKGRFTISRDNSKNTLYLQMNSLRAEDTAVYYCARGYHLEYMVSQDVWGQGTLVTVSS
notes: also called CD5 tandem single-domain antibody rabbit Fc fusion protein; not shown: rabbit Fc
As to B3, the EC50 (usually the concentration needed to bring the measured effect to its halfway point) in assay [2] was determined as 4.02 nM; in assay [3], 2.99 nM; in assay [4], 0.64 nM; in [5] it was 1.14 nM; in [6], 2.72 nM; in assay [7], 4.58 nM. The EC50 is 4.75 nM in [8]; 3.04 nM in assay [9]; 2.54 nM in [10]; 3.39 nM in assay [11]; 0.64 nM in assay [12]; 0.56 nM in [13]. For the same molecule, the EC50 in [14] was 0.72 nM; in [15], 1.3 nM; in [16], 0.92 nM; in assay [17] it was 1.2 nM.

B4: FHVH3VH1 CAR (other)
chain: QVQLVQSGAEVKKPGSSVKVSCKASGGTFSNYAISWVRQAPGQGLEWMGWISAYNGDTKYAQRLQGRVTMTTDTSTSTAYMELRNLRSDDTAVYYCARYESMSGQDIWGQGTLVTVSSGGGGSGGGGSGGGGSEVQLLESGGGLVQPGGSLRLSCAASGFTFSHSAMGWVRQAPGKGLEWVSSIYARGGYTYYADSVKGRFTISRDNSKNTLYLQMNSLRAEDTAVYYCARGYHLEYMVSQDVWGQGTLVTVSSFVPVFLPAKPTTTPAPRPPTPAPTIASQPLSLRPEACRPAAGGAVHTRGLDFACDIYIWAPLAGTCGVLLLSLVITLYCNHRNKRGRKKLLYIFKQPFMRPVQTTQEEDGCSCRFPEEEEGGCELRVKFSRSADAPAYQQGQNQLYNELNLGRREEYDVLDKRRGRDPEMGGKPRRKNPQEGLYNELQKDKMAEAYSEIGMKGERRRGKGHDGLYQGLSTATKDTYDALHMQALPPR
notes: Signal peptide left out; T2A remnant at the C-terminus not written; also called CT125A; CT125A injection
Turning to B4, in assay [18], the “cytotoxicity on CCRF-CEM-Luc cells, effector-target ratio 1:1” value was determined as 95.6%; the “cytotoxicity on CCRF-CEM-Luc cells, effector-target ratio 2:1” value came to 96.9%; the “cytotoxicity on JVM-2-Luc-CD5 cells, effector-to-target ratio 5:1” value was determined as 96.4%; the “cytotoxicity on JVM-2-Luc-CD5 cells, effector-to-target ratio 10:1” value was determined as 98.5%. In addition, in [18], the “cytotoxicity on MEC-1-CD5-Luc cells, effector-to-target ratio 1:1” value came out at 97.7%; the “cytotoxicity on MEC-1-CD5-Luc cells, effector-to-target ratio 2:1” value turned out to be 98.2%; the “cytotoxicity on SUP-T1-Luc cells, effector-target ratio 1:1” value is 56.9%; the “cytotoxicity on SUP-T1-Luc cells, effector-target ratio 2:1” value was found to be 91%. The same molecule yielded a concentration giving a half-maximal response (EC50) in assay [19] of 2.07 nM. This molecule also displayed an EC50 in assay [20] of 3.82 nM. Further, in assay [21], the EC50 is 1.22 nM. Further, in [22], it took 1.18 nM to reach a half-maximal effect (EC50).

B5: FHVH4 (#62 IgG) (Fc fusion)
chain: QVQLVQSGAEVKKPGESLRISCKASGYSFSNHWIGWVRQKPGKGLEWMGSVYPGDSDTRYSPSFQGHVTVSADKSMNTAYLQWSSLKTSDTAMYYCARGGTIDGDYGGRQDFWGQGTMVTVSS
notes: as for B2
As for B5, in assay [1], the Kd was 27.4 nM, the koff is 0.000309 s⁻¹ and the kon worked out at 12500 M⁻¹ s⁻¹.

B6: FHVH1 (#42 IgG) (Fc fusion)
chain: EVQLLESGGGLVQPGGSLRLSCAASGFTFSHSAMGWVRQAPGKGLEWVSSIYARGGYTYYADSVKGRFTISRDNSKNTLYLQMNSLRAEDTAVYYCARGYHLEYMVSQDVWGQGTLVTVSS
notes: also called #42 clone; anti-CD5 IgG; not shown: human IgG4 Fc
In assay [1], B6 displayed a Kd of 2.9 nM, a koff of 0.000139 s⁻¹ and a kon of 48000 M⁻¹ s⁻¹.

B7: FHVH2 (#60 IgG) (Fc fusion)
chain: QVQLVESGGGLVQPGGSLRLSCAASGFTFSSYEMNWVRQAPGKGLEWVSYISSSGSTIYYADSVKGRFTISRDNAKNSLYLQMNSLRAEDTAVYYCARVAQREGDVWGKGTTVTVSS
notes: as for B2
In [1], B7 had a dissociation constant (Kd) of 8.32 nM, a koff of 0.000212 s⁻¹ and a kon of 25500 M⁻¹ s⁻¹.

(Values after US20240050568A1 (NANJING IASO BIOTECHNOLOGY, published 2024).)
